What all share (assay): SPR; KD relative to WT C2;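 further: biacore SPR at 37 °C, anti-C2 mAbs captured on an anti-human IgG chip, alanine or serine C2 surface mutants tested, KD from 1:1 fit compared with wild-type C2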
For orientation: SPR reads the build-up and loss of mass on a sensor chip optically.

In one test the target is T1, human C2 T317A (human, UniProt P06681 21-752).
T1 sequence: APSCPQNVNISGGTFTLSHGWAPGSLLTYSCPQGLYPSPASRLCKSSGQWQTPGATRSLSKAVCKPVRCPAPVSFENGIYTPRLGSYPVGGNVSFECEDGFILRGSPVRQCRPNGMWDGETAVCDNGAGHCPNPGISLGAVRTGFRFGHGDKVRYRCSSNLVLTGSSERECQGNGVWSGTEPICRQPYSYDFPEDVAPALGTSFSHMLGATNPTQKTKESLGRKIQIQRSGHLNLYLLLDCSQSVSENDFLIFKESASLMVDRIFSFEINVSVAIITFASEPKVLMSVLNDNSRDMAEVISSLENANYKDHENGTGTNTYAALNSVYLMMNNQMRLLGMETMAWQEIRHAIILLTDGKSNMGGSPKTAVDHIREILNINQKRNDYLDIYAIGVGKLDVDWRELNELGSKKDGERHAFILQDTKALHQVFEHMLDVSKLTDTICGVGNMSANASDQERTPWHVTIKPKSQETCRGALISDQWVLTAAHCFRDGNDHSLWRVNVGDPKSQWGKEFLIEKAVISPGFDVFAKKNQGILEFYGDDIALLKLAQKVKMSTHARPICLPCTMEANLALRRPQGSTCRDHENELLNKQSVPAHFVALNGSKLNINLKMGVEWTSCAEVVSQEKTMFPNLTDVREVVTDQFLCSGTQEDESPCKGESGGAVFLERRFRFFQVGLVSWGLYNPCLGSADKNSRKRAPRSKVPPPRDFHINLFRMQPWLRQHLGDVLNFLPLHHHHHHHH

For another test, the target named is T2, human C2 R688A (human, UniProt P06681 21-752).
T2 sequence: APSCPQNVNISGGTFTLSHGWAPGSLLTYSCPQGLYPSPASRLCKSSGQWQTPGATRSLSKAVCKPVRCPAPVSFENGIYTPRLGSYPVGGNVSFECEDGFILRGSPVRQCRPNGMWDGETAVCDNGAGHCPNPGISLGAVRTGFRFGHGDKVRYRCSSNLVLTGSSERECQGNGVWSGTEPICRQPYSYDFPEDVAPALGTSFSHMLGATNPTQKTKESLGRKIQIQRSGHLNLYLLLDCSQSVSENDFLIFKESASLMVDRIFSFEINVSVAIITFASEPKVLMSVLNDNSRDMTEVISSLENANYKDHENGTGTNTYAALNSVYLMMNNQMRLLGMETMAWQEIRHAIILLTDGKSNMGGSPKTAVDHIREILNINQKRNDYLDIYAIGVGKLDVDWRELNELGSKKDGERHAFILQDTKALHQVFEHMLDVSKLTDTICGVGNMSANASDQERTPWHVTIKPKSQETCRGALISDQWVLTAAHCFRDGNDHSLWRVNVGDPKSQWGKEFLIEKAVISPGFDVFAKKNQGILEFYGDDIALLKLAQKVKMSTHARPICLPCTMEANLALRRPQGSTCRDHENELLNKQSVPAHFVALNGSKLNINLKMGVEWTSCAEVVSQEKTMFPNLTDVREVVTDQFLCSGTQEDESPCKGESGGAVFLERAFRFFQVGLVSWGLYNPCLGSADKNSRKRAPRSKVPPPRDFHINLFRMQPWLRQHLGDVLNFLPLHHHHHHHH

For a further test, the target named is T3, human C2 V465A (human, UniProt P06681 21-752).
T3 sequence: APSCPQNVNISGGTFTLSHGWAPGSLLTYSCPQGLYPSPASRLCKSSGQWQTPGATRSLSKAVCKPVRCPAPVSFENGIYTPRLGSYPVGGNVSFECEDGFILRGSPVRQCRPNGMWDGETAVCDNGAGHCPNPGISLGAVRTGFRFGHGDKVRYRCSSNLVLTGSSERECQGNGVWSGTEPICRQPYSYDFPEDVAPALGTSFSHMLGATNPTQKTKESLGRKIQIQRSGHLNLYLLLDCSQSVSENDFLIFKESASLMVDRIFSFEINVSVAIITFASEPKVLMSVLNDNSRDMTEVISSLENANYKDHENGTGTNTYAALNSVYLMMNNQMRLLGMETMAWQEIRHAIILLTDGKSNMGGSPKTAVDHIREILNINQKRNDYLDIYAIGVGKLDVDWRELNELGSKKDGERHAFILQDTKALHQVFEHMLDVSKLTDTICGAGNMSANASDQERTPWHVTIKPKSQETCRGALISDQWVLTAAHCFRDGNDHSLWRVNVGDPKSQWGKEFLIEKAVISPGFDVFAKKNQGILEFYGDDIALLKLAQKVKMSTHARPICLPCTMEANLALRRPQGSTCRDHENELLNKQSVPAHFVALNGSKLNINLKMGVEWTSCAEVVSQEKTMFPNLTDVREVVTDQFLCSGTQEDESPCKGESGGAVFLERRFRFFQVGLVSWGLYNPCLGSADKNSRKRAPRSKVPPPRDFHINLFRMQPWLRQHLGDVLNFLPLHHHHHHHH

The target in the next test is T4, human C2 A472S (human, UniProt P06681 21-752).
T4 sequence: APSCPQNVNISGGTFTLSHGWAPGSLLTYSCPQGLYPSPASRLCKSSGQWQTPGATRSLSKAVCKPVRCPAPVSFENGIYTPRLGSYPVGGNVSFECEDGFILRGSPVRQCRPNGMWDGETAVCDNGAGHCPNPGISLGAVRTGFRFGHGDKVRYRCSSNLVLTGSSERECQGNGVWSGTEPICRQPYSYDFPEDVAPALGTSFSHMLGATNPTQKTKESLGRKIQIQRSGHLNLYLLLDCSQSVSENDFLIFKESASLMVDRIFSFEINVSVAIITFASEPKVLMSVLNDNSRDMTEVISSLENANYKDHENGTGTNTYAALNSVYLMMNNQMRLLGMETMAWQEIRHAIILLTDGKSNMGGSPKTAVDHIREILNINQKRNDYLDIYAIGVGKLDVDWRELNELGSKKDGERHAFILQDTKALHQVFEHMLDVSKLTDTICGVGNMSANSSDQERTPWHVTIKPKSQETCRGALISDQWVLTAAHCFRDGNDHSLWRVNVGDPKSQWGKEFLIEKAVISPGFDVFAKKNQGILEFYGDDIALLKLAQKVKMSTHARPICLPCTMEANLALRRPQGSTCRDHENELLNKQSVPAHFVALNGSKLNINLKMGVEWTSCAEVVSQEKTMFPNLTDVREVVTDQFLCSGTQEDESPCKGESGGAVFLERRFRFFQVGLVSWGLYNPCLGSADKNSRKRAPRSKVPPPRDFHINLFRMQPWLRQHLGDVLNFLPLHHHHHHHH

Method for human C2 A472S: (§1) Surface plasmon resonance (SPR, Biacore) was used for all binding affinity analyses. In brief, goat anti-human IgG was directly immobilised onto the carboxymethyl dextran surface of CM5 sensorchips to approximately 12,000 RU using standard NHS/EDC chemistry at pH 5. The immobilised antibody surface was pre-conditioned with ten injections of polyclonal human IgG (Privigen 60 s) prepared at 1 μg/mL. Ligands (anti-C2 mAbs) were captured at the beginning of each cycle as described below. An adjacent spot or flow cell in which only Polyclonal IgG was capture was used as a reference surface. The goat anti-human IgG Fc antibody surface was regenerate in 100 mM H3PO4, injected for 45 seconds at the end of each cycle. Experiments were performed at 37° C. and the flow rate of each experiment was kept constant at 30 μL/min.
(§2) Sensogram data was double-referenced against a reference anti-IgG surface (i.e. minus anti-C2 mAb) and blank buffer injections obtained within each experiment. The binding data was fit to 1:1 (kinetic or steady-state) model using local Rmax and null refraction index (RI=0) when appropriate. Buffers and solutions were filtered (0.22 μm) prior to use.
(§3) The C2 mutants were designed to test the importance of surface exposed residues for antibody binding. Residues located at either the N-terminal VWA domain or C-terminal protease domain of C were replaced by either alanine or serine and tested for binding against anti-C2 antibodies.
Method for human C2 R688A: as §1, §2, §3
Method for human C2 T317A: as §1, §2, §3
Method for human C2 V465A: as §1, §2, §3

B1: RF16-214 (antibody, V domains shown)
VH: EVQLLESGGGLVQPGGSLRLSCAASGFTFSWYQMMWVRQAPGKGLEWVSRIYPSGGGTAYADSVKGRFTISRDNSKNTLYLQMNSLRAEDTAVYYCARDAGYGDNWGQGTLVTVSS
VL: QSALTQPPSVSVSPGQTASITCSGDKLGEKYASWYQQKAGQSPVMVIYQDRKRPSGIPERFSGSNSGNTATLTISGTQAMDEADYYCQAWDTRAVVFGGGTKLTVLG
With B1, the Fold diff amounted to 1 fold in the test with human C2 T317A, 3 fold with human C2 R688A, 2 fold with human C2 V465A and 8 fold in the test with human C2 A472S.

The values above are taken from patent US20220332804A1 (CSL INNOVATION, published 2022).
